Test results as given in doi:10.1101/586255v1.

Substrate: N[C@@H](CO)C(=O)O
Test: purified protein, by the assay type
Settings: pH 7.6; 37.0 °C

B1: EcSerRS (Escherichia coli K-12) (protein)
chain: MLDPNLLRNEPDAVAEKLARRGFKLDVDKLGALEERRKVLQVKTENLQAERNSRSKSIGQAKARGEDIEPLRLEVNKLGEELDAAKAELDALQAEIRDIALTIPNLPADEVPVGKDENDNVEVSRWGTPREFDFEVRDHVTLGEMHSGLDFAAAVKLTGSRFVVMKGQIARMHRALSQFMLDLHTEQHGYSENYVPYLVNQDTLYGTGQLPKFAGDLFHTRPLEEEADTSNYALIPTAEVPLTNLVRGEIIDEDDLPIKMTAHTPCFRSEAGSYGRDTRGLIRMHQFDKVEMVQIVRPEDSMAALEEMTGHAEKVLQLLGLPYRKIILCTGDMGFGACKTYDLEVWIPAQNTYREISSCSNVWDFQARRMQARCRSKSDKKTRLVHTLNGSGLAVGRTLVAVMENYQQADGRIEVPEVLRPYMNGLEYIG
  Km: 4.706 ± 0.706 mM

B2: SaSerRS (Staphylococcus aureus subsp. aureus NCTC 8325) (protein)
chain: MLDIRLFRNEPDTVKSKIELRGDDPKVVDEILELDEQRRKLISATEEMKARRNKVSEEIALKKRNKENADDVIAEMRTLGDDIKEKDSQLNEIDNKMTGILCRIPNLISDDVPQGESDEDNVEVKKWGTPREFSFEPKAHWDIVEELKMADFDRAAKVSGARFVYLTNEGAQLERALMNYMITKHTTQHGYTEMMVPQLVNADTMYGTGQLPKFEEDLFKVEKEGLYTIPTAEVPLTNFYRNEIIQPGVLPEKFTGQSACFRSEAGSAGRDTRGLIRLHQFDKVEMVRFEQPEDSWNALEEMTTNAEAILEELGLPYRRVILCTGDIGFSASKTYDLEVWLPSYNDYKEISSCSNCTDFQARRANIRFKRDKAAKPELAHTLNGSGLAVGRTFAAIVENYQNEDGTVTIPEALVPFMGGKTQISKPVK
  Km: 4.39 ± 0.654 mM
